This note sets out measurements from patent US11021532 (CENTIVAX, dated 2021).

Usually Kd stands for the concentration at which binding is half-saturated. High values mean lower affinity, low ones higher affinity.

In test [1] the target is SARS CoV-2 spike protein on pseudovirus (SARS-CoV-2, UniProt P0DTC2 14-1273). The experiment in a line: cell-based or functional assay.
The target in test [2] is T1, SARS-CoV-2 Receptor Binding Domain (RBD) protein (SARS-CoV-2). Description: SPR (Carterra LSA), scFv captured via anti-V5, RBD as analyte, 1:1 fit.
The target in test [3] is T1, SARS-CoV-2 Receptor Binding Domain …. The experiment in a line: SPR (Carterra LSA), scFv captured via anti-V5, RBD as analyte.

B1: COVID19_P24_G06 (scFv, V domains shown)
VH: QVQLVQSGAEVKKPGASVKVSCKASGYTFTNYGISWVRQAPGQGLEWMGWISARNGNTNYAQKFQGRVTMTRDTSTSTVYMELSSLRSEDTAVYYCTTDPVLEWFGYSIWGQGTMVTVSS
VL: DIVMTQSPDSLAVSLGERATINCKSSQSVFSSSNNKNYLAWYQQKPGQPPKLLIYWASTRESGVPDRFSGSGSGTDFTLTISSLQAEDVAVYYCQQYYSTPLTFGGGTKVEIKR
For B1, the “IC50 [µg/mL] pseudotyped lenti neut” value in test [1] worked out at 0.16 µg/mL.

B2: COVID19_P24_C01 (scFv, V domains shown)
VH: QVQLVQSGAEVKKPGASVKVSCKASGYTFTRYYIHWVRQAPGQGLEWMGIINPSGGSTTYAQKFQGRVTMTRDTSTSTVYMELSSLRSEDTAVYYCAKGAPHDYIWGSYRPDAFDIWGQGTMVTVSS
VL: DIQMTQSPSSLSASVGDRVTITCRASENIDSWLAWYQQKPGKAPKLLIYEASTLESGVPSRFSGSGSGTDFTLTISSLQPEDFATYYCHQYLSSPETFGQGTKVEIKR
Consider B2, for which the “IC50 [µg/mL] pseudotyped lenti neut” value in test [1] turned out to be 0.92 µg/mL.

B3: COVID19_P24_D08 (scFv, V domains shown)
VH: QVQLVQSGAEVKKPGASVKVSCKASGYTFTSYDINWVRQAPGQGLEWMGIIDPSGGSTSYAQKFQGRVTMTRDTSTSTVYMELSSLRSEDTAVYYCATVTPGYGMDVWGQGTTVTVSS
VL: DIQMTQSPSSLSASVGDRVTITCRASQTIYSYLNWYQQKPGKAPKLLIYDASNLETGVPSRFSGSGSGTDFTLTISSLQPEDFATYYCQQAISFPLTFGGGTKLEIKR
As to B3, the “IC50 [µg/mL] pseudotyped lenti neut” value in test [1] is 17 µg/mL.

B4: COVID19_P23_G11 (scFv, V domains shown)
VH: QVQLVQSGAEVKKPGASVKVSCKASGGTFRSTAISWVRQAPGQGLEWMGWMNPNSGNTGYAQKFQGRVTMTRDTSTSTVYMELSSLRSEDTAVYYCARAGYSSSSGYYYYGMDVWGKGTTVTVSS
VL: DIQMTQSPSSLSASVGDRVTITCRASQGISNNLNWYQQKPGKAPKLLIYAASSLQSGVPSRFSGSGSGTDFTLTISSLQPEDFATYYCQQYDTFPLTFGQGTKVEIKR
For B4, the “IC50 [µg/mL] pseudotyped lenti neut” value in test [1] worked out at 0.26 µg/mL.

B5: COVID19_P23_G12 (scFv, V domains shown)
VH: QVQLVQSGAEVKKPGASVKVSCKASGYIFTSYPIHWVRQAPGQGLEWMGWMNPNSGNTGYAQKFQGRVTMTRDTSTSTVYMELSSLRSEDTAVYYCARDRGSYDTDAFDIWGQGTMVTVSS
VL: DIQMTQSPSSLSASVGDRVTITCRASQDISNYLNWYQQKPGKAPKLLIYAASNLQSGVPSRFSGSGSGTDFTLTISSLQPEDFATYYCQQANSFPSTFGQGTKLEIKR
Consider B5, for which the Kd in test [2] was 370 pM; in test [3] it was under 50000 pM. Besides, the “IC50 [µg/mL] pseudotyped lenti neut” value in test [1] came to 15.9 µg/mL.
